In article PMC10942789, “Biomolecular condensates can both accelerate and suppress aggregation of α-synuclein” (Science Advances, 2022):

Biological target: the molecule itself
Assay: thioflavin T aggregation kinetics + transmission electron microscopy of fibrils; self-association into amyloid fibrils; 40 uM FL-αSyn or αSyn-108, or 160 uM NACore; 50 mM Hepes (pH 7.4), 100 mM NaCl, 100 uM EDTA, 20 uM ThT, 37°C, continuous linear shaking; without coacervates (reference), with supernatant or with coacervate droplets

B1: NACore peptide (αSyn-68-78) (peptide)
peptide: GAVVTGVTAVA
notes: alpha-synuclein residues 68-78, from the non-amyloid-β component; source: synthetic peptide; bought: CASLO ApS (Denmark)
  binding result: binds
